Patent publication US20250277057A1 (OKLAHOMA MEDICAL RESEARCH FOUNDATION, published 2025)
Positions count from the first letter of the chain named. Names and notes keep the numbering of the source.

Assays:
[1] = biological target: T1, human activated protein C (human, UniProt P04070 43-197; P04070 212-461); test: direct antigen coating ELISA (KD ELISA) of Fab periplasmic extract, anti-c-myc HRP
T1 construct: In the plasma assays aPC is generated in human plasma with Protac; also called aPC; haPC
Experimental: Each well of 96-well plates was coated with an anti-Fab antibody in a coating buffer PBS with pH 7.4 at 4° C. The next day, the plates were blocked with casein in PBS with pH 7.4 at 25° C. for 1 hour. Then, Fab PE was added to the plates, and incubated at 25° C. for 1 hour. After the plates were washed, biotinylated antigen was added to the wells and incubated at 25° C. for 1 hour. Then, the biotinylated antigen was incubated with an SA-horseradish peroxidase (HRP) conjugate at 25° C. for 1 hour. HRP activity was detected with a tetramethylbenzidine (TMB) substrate, and the reaction was quenched with 2M HCl. The plates were read at 450 nm. […] The binding-improved mutants with unique sequences of HAPC-14 were ranked by direct antigen coating ELISA.
Each well of 96-well plates was coated with hPro1. biotin in 1×PBS buffer with pH 7.4, and incubation was carried out overnight at 4° C. The next day, the plates were blocked with casein in 1×PBS buffer with pH 7.4 at 25° C. for 1 hour. Fab PE of each mutant diluted according to one concentration was added to the plates and incubated at 25° C. for 1 hour. Then the Fab PE was incubated with goat anti-c-myc HRP conjugated at 25° C. for 1 hour. HRP activity was detected with a tetramethylbenzidine (TMB) substrate, and the reaction was quenched with 2M HCl. OD values of each plate were read at 450 nm.

[2] = biological target: T1, human activated protein C; test: KD ELISA ranking, direct antigen coating ELISA of Fab
[3] = biological target: T1, human activated protein C; test: cell-based or functional assay
human protein C = biological target: T2, human protein C (human, UniProt P04070 43-461); test: ELISA, plate coated with hPC 1 ug/mL, anti-hIgG-Fc-HRP
T2 construct: Zymogen form, coated on ELISA plates; also called hPC; PC
Experimental: (§1) The binding abilities of the anti-aPC monoclonal antibodies to haPC/hPC were assayed by Elisa. […] 1. ELISA plates were coated with haPC/hPC (1 ug/mL in PBS), 100 μL/well, at 4° C. overnight. […] 2. The plates were washed 3 times with PBST (0.1% Tween 20), 200 μL/well. […] 3. The plates were blocked with 2% BSA (PBS solution), 200 μL/well, at room temperature for 1 hour. […] 4. The plates were washed 3 times with PBST (0.1% Tween 20), 200 μL/well. […] 5. The plates were incubated with anti-aPC monoclonal antibody as primary antibody (diluted from 10 μg/mL in 2% BSA), 100 μL/well, at room temperature for 1 hour. […] 6. The plates were washed 3 times with PBST (0.1% Tween 20), 200 μL/well. [0200] 7. The plates were incubated with anti-hIgG-Fc antibody-HRP (diluted 5000-fold in 2% BSA buffer) at room temperature for 1 hour. [0201] 8. The plates were washed 6 times with PBST (0.1% Tween 20), 200 μL/well. [0202] 9. The plates were incubated with a TMB substrate (prepared from solutions A and B at 1:1 (v/v)), 100 μL/well, away from light for 10 minutes. […] 10. The reaction was quenched with HCl (1 M), 100 μL/well, and OD450 was read.

[4] = biological target: T1, human activated protein C; test: ELISA, plate coated with haPC 1 ug/mL, anti-hIgG-Fc-HRP
Experimental: as §1

[5] = biological target: T1, human activated protein C; test: Octet BLI, antibody on Protein A sensor, huAPC 3.13-50 nM, 1:1 model, 25 C, pH 7.4
Experimental: Assay method: Octet analysis was carried out at 25° C. using a Protein A Octet biosensor in 1× Kinetics buffer. During the kinetics assay, the baseline step assay was run in 1× Kinetics buffer for 120 seconds, and then run for 240 seconds after the antibody was loaded to the biosensor. Next, the baseline 2 step assay was run in 1× Kinetics buffer for 120 seconds. […] The 1× Kinetics buffer was used as a blank control to show the natural dissociation of the antibody in the buffer. 10 mM glycine at pH 1.5 was used for the regeneration step. Octet data analysis software was used to calculate binding kinetics, and a 1:1 binding model was used for curve fitting.
The affinities of the mutant antibodies were assayed at pH 7.4.

B1: HAPC-14-R1-1H1-F2 (Fab, V domains shown)
VH: EVQLVESGGGLVQPGGSLRLSCAASGFTFSFYYLNWVRQAPGKGLEWVGDIRLKSNNYEKHYAESVKGRFTISRDDSKSITYLQMNSLRAEDTAVYYCAREGDYFDYWGQGTTVTVSS
VL: DIQLTQSPSSLSASVGDRVTITCRASESVDSFGATFMHWYQQKPGKAPKLLIYLASNLESGVPSRFSGSGSGTDFTLTISSLQPEDFATYYCQQNNEDPYTFGQGTKLEIK
notes: Single-site mutant Fab of HAPC-14 in periplasmic extract
- Bmax [1]: 0.278

B2: R2-9C1 (Fab, V domains shown)
VH: B1 VH with S55K
VL: B1 VL with N57W, Q93V
notes: Combinatorial mutant Fab of HAPC-14; also called combinatorial mutant No. 16
- Bmax [2]: 1.09

B3: HAPC-14-R1-2L6-F2 (Fab, V domains shown)
VH: B1 VH with F31N
VL: B1 VL with E59K
notes: Single-site mutant Fab of HAPC-14; inferred from the clone name (2L6, same site as E59G/P)
- Bmax [1]: 0.299

B4: HAPC-14-R1-3L1-D11 (Fab, V domains shown)
VH: B1 VH with F31N
VL: B1 VL with Q93W
notes: Single-site mutant Fab of HAPC-14; inferred from the clone name (3L1, same site as Q93V)
- Bmax [1]: 0.261

B5: R2-24D4 (Fab, V domains shown)
VH: B1 VH with S55K, Y104T
VL: B1 VL with N57W, E59P
notes: Combinatorial mutant Fab of HAPC-14; also called combinatorial mutant No. 10
- Bmax [2]: 0.717

B6: HAPC-14-R1-2L4-D4 (Fab, V domains shown)
VH: B1 VH with F31N
VL: B1 VL with N57R
notes: Single-site mutant Fab of HAPC-14
- Bmax [1]: 0.567

B7: R2-30F7 (Fab, V domains shown)
VH: B1 VH
VL: B1 VL with N57R, E59P, Q93V
notes: Combinatorial mutant Fab of HAPC-14; also called combinatorial mutant No. 11
- Bmax [2]: 0.617

B8: R2-23H2 (Fab, V domains shown)
VH: B1 VH with S55K
VL: B1 VL with N57W, E59G
notes: Combinatorial mutant Fab of HAPC-14; also called combinatorial mutant No. 2
- Bmax [2]: 1.26

B9: R2-22B6 (Fab, V domains shown)
VH: B1 VH
VL: B1 VL with N57R, E59G
notes: Combinatorial mutant Fab of HAPC-14; also called combinatorial mutant No. 15
- Bmax [2]: 1.21

B10: R2-24H1 (Fab, V domains shown)
VH: B1 VH
VL: B1 VL with N57R, E59G, Q93V
notes: Combinatorial mutant Fab of HAPC-14; also called combinatorial mutant No. 8
- Bmax [2]: 1.25

B11: R2-29D9 (Fab, V domains shown)
VH: B1 VH with S55K, Y104T
VL: B1 VL with N57R, E59P, Q93V
notes: Combinatorial mutant Fab of HAPC-14; also called combinatorial mutant No. 7
- Bmax [2]: 0.96

B12: HAPC-14-R1-2L6-G1 (Fab, V domains shown)
VH: B1 VH with F31N
VL: B1 VL with E59G
notes: as for B6
- Bmax [1]: 0.492

B13: R2-23E10 (Fab, V domains shown)
VH: B1 VH
VL: B1 VL with N57W, E59G
notes: Combinatorial mutant Fab of HAPC-14; also called combinatorial mutant No. 12
- Bmax [2]: 1.24

B14: HAPC-14-R1-2L4-B2 (Fab, V domains shown)
VH: B1 VH with F31N
VL: B1 VL with N57W
notes: as for B6
- Bmax [1]: 0.662

B15: R2-25B7 (Fab, V domains shown)
VH: B1 VH
VL: B1 VL with N57W, E59P, Q93V
notes: Combinatorial mutant Fab of HAPC-14; also called combinatorial mutant No. 5
- Bmax [2]: 1.07

B16: HAPC-14-R1-2L4-G9 (Fab, V domains shown)
VH: B1 VH with F31N
VL: B1 VL with N57K
notes: Single-site mutant Fab of HAPC-14; inferred from the clone name (2L4, same site as N57R/W)
- Bmax [1]: 0.287

B17: HAPC-14-R1-1L7-B9 (Fab, V domains shown)
VH: B1 VH with F31N
VL: B1 VL with D30A
notes: Single-site mutant Fab of HAPC-14; inferred from the clone name (1L7 = VL CDR1, 7th residue, the only D of that CDR)
- Bmax [1]: 0.151

B18: HAPC-14-R1-3H7-F2 (Fab, V domains shown)
VH: B1 VH with F31N, Y107P
VL: B1 VL
notes: Single-site mutant Fab of HAPC-14; inferred from the clone name (3H7 = VH CDR3, 7th residue)
- Bmax [1]: 0.193

B19: HAPC-14-R1-2L4-A1 (Fab, V domains shown)
VH: B1 VH with F31N
VL: B1 VL with N57L
notes: as for B16
- Bmax [1]: 0.244

B20: R2-32E6 (Fab, V domains shown)
VH: B1 VH with S55K
VL: B1 VL with N57W, E59G, Q93V
notes: Combinatorial mutant Fab of HAPC-14; Printed CDRs are the same as those of R2-24F3; also called combinatorial mutant No. 14
- Bmax [2]: 1.41

B21: HAPC-14-R1-3L1-G8 (Fab, V domains shown)
VH: B1 VH with F31N
VL: B1 VL with Q93V
notes: as for B6
- Bmax [1]: 0.24

B22: HAPC-14-8 (antibody, V domains shown)
VH: B1 VH with S55K, Y104T
VL: B1 VL with N57R, E59G, Q93V
notes: Whole IgG, backbone hIgG1; also called HPAC 14-8
- Mean clotting time (s), FIX-deficient plasma, APC-antibody concentration 0.05 ug/ml [3]: 732 s
- Mean clotting time (s), FIX-deficient plasma, APC-antibody concentration 0.1 ug/ml [3]: 392 s
- Mean clotting time (s), FIX-deficient plasma, APC-antibody concentration 0.5 ug/ml [3]: 276 s
- Mean clotting time (s), FVIII-deficient plasma, APC-antibody concentration 0.05 ug/ml [3]: 316 s
- Mean clotting time (s), FVIII-deficient plasma, APC-antibody concentration 0.1 ug/ml [3]: 252 s
- Mean clotting time (s), FVIII-deficient plasma, APC-antibody concentration 0.5 ug/ml [3]: 190 s
- Span (human protein C): -0.00465
- EC50 [4]: 0.138 nM
- Span [4]: 1.05
- Kd [5]: 10.5 nM
- koff [5]: 0.00262 s⁻¹
- kon [5]: 250000 M⁻¹ s⁻¹

B23: HAPC-14-R1-3H4-C6 (Fab, V domains shown)
VH: B1 VH with F31N, Y104T
VL: B1 VL
notes: as for B6
- Bmax [1]: 0.325

B24: HAPC-14-R1-3H4-C5 (Fab, V domains shown)
VH: B1 VH with F31N, Y104S
VL: B1 VL
notes: Single-site mutant Fab of HAPC-14; inferred from the clone name (3H4 = VH CDR3, 4th residue, same site as Y104T)
- Bmax [1]: 0.328

B25: R2-27G7 (Fab, V domains shown)
VH: B1 VH with S55K
VL: B1 VL with N57R, E59G
notes: Combinatorial mutant Fab of HAPC-14; also called combinatorial mutant No. 6
- Bmax [2]: 0.715

B26: HAPC-14-R1-2H6-C2 (Fab, V domains shown)
VH: B1 VH with F31N, S55K
VL: B1 VL
notes: as for B6
- Bmax [1]: 0.262

B27: R2-26E4 (Fab, V domains shown)
VH: B1 VH with S55K
VL: B1 VL with N57R, E59G, Q93V
notes: Combinatorial mutant Fab of HAPC-14; also called combinatorial mutant No. 4
- Bmax [2]: 1.21

B28: R2-22A10 (Fab, V domains shown)
VH: B1 VH with S55K
VL: B1 VL with N57R, Q93V
notes: Combinatorial mutant Fab of HAPC-14; also called combinatorial mutant No. 9
- Bmax [2]: 1.01

B29: R2-25G5 (Fab, V domains shown)
VH: B1 VH with S55K
VL: B1 VL with N57W, E59P, Q93V
notes: Combinatorial mutant Fab of HAPC-14; also called combinatorial mutant No. 3
- Bmax [2]: 1.04

B30: R2-24F3 (Fab, V domains shown)
VH: B1 VH with S55K
VL: B1 VL with N57W, E59G, Q93V
notes: Combinatorial mutant Fab of HAPC-14; Printed CDRs are the same as those of R2-32E6; also called combinatorial mutant No. 1
- Bmax [2]: 1.37
